We go through 14 sequences from patent US9394352B2, “Immunogenic POTE peptides and methods of use” (The United States of America, as represented by the …, priority 2010, dated 2016).

One experiment deals with T1, HLA-A2 molecule (Homo sapiens, UniProt P04439, D140Y/D185E/D98H/E176V/E277Q/G131W/G231S/I119V/I121R/I166T/I218V/L300P/L318F/N151K/N90K/P208A/P217A/Q86G/Q94H/R138H/R169H/T345S).
T1 construct: The T2 cell line is deficient for TAP1 and TAP2 transporter proteins and expresses low levels of HLA-A2; endogenous in cells; host or cells: T2 cell line (TAP1/TAP2-deficient)
Kind of experiment: T2 binding assay (HLA-A2 up-regulation on TAP-deficient T2 cells). The conditions noted are these: for binding affinity for the HLA-A2 molecule (in words): T2 binding assay; for FI0.5: peptide concentration that increases HLA-A2.1 expression by 50% over no peptide. How it is done: FIG. 1 is a graph showing binding affinity of POTE peptides to HLA-A2 molecules. Peptides were dissolved in DMSO in double-distilled water and different concentrations of peptides were added into the culture of TAP-deficient T2 cells. After overnight culture of the cells in medium supplemented with β2-microglobulin, cells were stained with anti-HLA-A2. HLA-A2 expression was quantified as fluorescence index (FI) according to the following formula: FI=[(mean fluorescence intensity with peptide−mean fluorescence intensity without peptide)/mean fluorescence intensity without peptide]. Background fluorescence without BB7.2 was subtracted for each individual value. To compare the different peptides, FI0.5 (the peptide concentration that increases HLA-A2.1 expression by 50% over no peptide control background) was calculated from the titration curve for each peptide.
FIGS. 2A-2C are graphs showing binding affinity of substituted POTE peptides to HLA-A2 molecules. Shown are binding affinities of the substituted POTE 252 peptides (FIG. 2A), the substituted POTE 553 peptides (FIG. 2B) and the substituted POTE 323 peptides (FIG. 2C) to HLA-A2 molecules. Different concentrations of peptides were added into the culture of TAP-deficient T2 cells. After overnight culture of the cells in medium supplemented with β2-microglobulin, cells were stained with anti-HLA-A2 antibody.
Peptide binding capacity to the HLA-A2 molecule was measured by using the T2 cell line according to a protocol described previously (Peters et al., Bioinformatics 19(14):1765-1772, 2003). T2 cells (3×10^5 cells/well) were incubated overnight in 96-well plates with culture medium (1:1 mixture of RPMI 1640/Eagle-Hank's amino acid containing 2.5% fetal bovine serum, 100 U/ml penicillin, and 100 μg/ml streptomycin) with 10 μg/ml β2-microglobulin (Sigma) and different titrated concentrations of peptides (starting from 100 μM with 2-fold serial dilution) as shown in the figures to determine the concentration giving a 50% increasing in binding. Cells were washed once with cold HBSS containing 0.1% BSA and incubated for 30 minutes at 4° C. with anti-HLA-A2.1 BB7.2 monoclonal antibody (1:40 dilution from hybridoma supernatant). After washing, cells were stained with FITC-labeled goat anti-mouse immunoglobulin (BD, San Jose, Calif.), and the level of HLA expression was measured by flow cytometry. HLA-A2 expression was quantified as fluorescence index (FI) according to the following formula: FI=[(geometric mean fluorescence intensity with peptide-geometric mean fluorescence intensity without peptide)/geometric mean fluorescence intensity without peptide]. Background fluorescence without BB7.2 was subtracted for each individual value. To compare the different peptides, FI0.5, the peptide concentration that increases HLA-A2.1 expression by 50% over no peptide control background, was calculated from the titration curve for each peptide.

The test system of experiment [1] is IFN-γ secreting spleen cells. Kind of experiment: ex vivo IFN-γ ELISPOT assay on splenocytes of peptide-immunized AAD mice. It counts as in vivo. Particulars: for IFN-γ response (ELISPOT spots) on stimulation with the immunizing peptide: AAD mice immunized s.c., splenocytes pooled from three mice two weeks after boost. How it is done:
(§1) FIGS. 3A and 3B are graphs showing immunogenicity of the wild type and enhanced POTE 252 epitopes in AAD mice. AAD mice were immunized subcutaneously with a mixture of peptide and cytokines in adjuvant as described in Example 1. (FIG. 3A) Two weeks after the second boost, splenocytes pooled from three mice were restimulated with splenocytes of naïve AAD mice pulsed with 1.0 μM of each peptide at different effector to target (E/T) ratios. Cells were cultured in anti-mouse IFN-γ antibody coated ELISPOT™ plates. After overnight culture, biotinylated anti-mouse IFN-γ antibodies were added to each well. ELISPOT™ substrates were added to develop the color and spots were counted by an ELISPOT™ reader (AID ELISPOT™ reader system). Figures show numbers of spots per million cells. (FIG. 3B) CTL cross-reactivity on each peptide. Two weeks after the second boost, pooled spleen cells from three mice were restimulated with irradiated splenocytes pulsed with 1.0 μM of peptide for 7 days. In a 4-hour ^51Cr release assay, CIR.AAD cells were pulsed with 1.0 μM of peptide and labeled with ^51Cr. After washing three times, target cells were mixed with different numbers of effector cells and then cultured for 4 hours before harvesting.
(§2) FIGS. 4A-4D are graphs showing immunogenicity of the wild type and enhanced POTE 553 epitopes in AAD mice. AAD mice were immunized subcutaneously with a mixture of peptide and cytokines in adjuvant. (FIGS. 4A and 4B) Two weeks after the second boost, splenocytes pooled from three mice were restimulated with splenocytes of naïve AAD mice pulsed with 10 nM to 1.0 μM of each peptide at different E/T ratios. Cells were cultured in anti-mouse IFN-γ antibody coated ELISPOT™ plates. After overnight culture, biotinylated anti-mouse IFN-γ antibodies were added to each well. ELISPOT™ substrates were added to develop color and spots were counted by an ELISPOT™ reader (AID ELISPOT™ reader system). Figures show numbers of spots per million cells. (FIGS. 4C and 4D) CTL cross-reactivity on each peptide. Two weeks after the second boost, pooled spleen cells from three mice were restimulated with irradiated splenocytes pulsed with 1.0 μM of peptide for 7 days. In a 4-hour ^51Cr release assay, CIR.AAD cells were pulsed with 1.0 μM of peptide and labeled with ^51Cr. After washing three times, target cells were mixed with different numbers of effector cells and then cultured for 4 hours before harvesting.
(§3) FIGS. 5A and 5B are graphs showing immunogenicity of the POTE 272 epitope in AAD mice. AAD mice were immunized subcutaneously with a mixture of peptide and cytokines in adjuvant. (FIG. 5A) Two weeks after the second boost, splenocytes pooled from three mice were restimulated with splenocytes of naïve AAD mice pulsed with 1.0 μM POTE 272 peptide at different E/T ratios. Cells were cultured in anti-mouse IFN-γ antibody coated ELISPOT™ plates. After overnight culture, biotinylated anti-mouse IFN-γ antibodies were added in each well. ELISPOT™ substrates were added to develop color and spots were counted by an ELISPOT™ reader (AID ELISPOT™ reader system). Figures show numbers of spots per million cells. (FIG. 5B) CTL reactivity on POTE 272 peptide. Two weeks after the second boost, pooled spleen cells from three mice were restimulated with irradiated splenocytes pulsed with 1.0 μM POTE 272 peptide for 7 days. In a 4-hour ^51Cr release assay, CIR.AAD cells were pulsed with 1.0 μM POTE 272 peptide and labeled with ^51Cr. After washing three times, target cells were mixed with different numbers of effector cells and then cultured for 4 hours before harvesting.
(§4) FIGS. 6A and 6B are graphs showing immunogenicity of the wild type and enhanced POTE 323 epitopes in AAD mice. AAD mice were immunized subcutaneously with a mixture of peptide and cytokines in adjuvant. (FIG. 6A) Two weeks after the second boost, splenocytes pooled from three mice were restimulated with splenocytes of naïve AAD mice pulsed with 1.0 μM of each peptide at different E/T ratios. […]

Experiment [2] has as its system C1R.AAD cells pulsed with peptide. Kind of experiment: 4-hour 51Cr release CTL assay after one week in vitro stimulation. It counts as cell-based, human. Particulars: CTLs from immunized AAD mice, restimulated 7 days with 1.0 μM peptide; targets pulsed with 1.0 μM peptide. How it is done: as §1, §2, §3, §4
Where [3] appears, read: wild-type peptides, Table 1 / FIG. 1.
Setting [4] is: substituted peptides and their wild types, Table 2 / FIGS. 2A-2C.

“Also recorded” adds a separate entry of the source.

For “GLTPLLLGV [POTE 272-280, unmodified 9-mer peptide, residues 272-280 of human POTE]”, the “binding affinity for the HLA-A2 molecule (in words)” value (“binding affinity” below) with HLA-A2 molecule was “strongest HLA-A2 binding affinity”. This sequence registered an FI0.5 in the experiment with HLA-A2 molecule (setting [3]) of roughly 0.9 µM. For the same sequence, the “IFN-γ response (ELISPOT spots) on stimulation with the immunizing peptide” value (from here on “IFN-γ response (ELISPOT spots)”) in experiment [1] was “induced significant IFN-γ responses”. The “CTL lysis of peptide-pulsed target cells” value in experiment [2] is on record as “lysed target cells pulsed with POTE 272”.

“KIFEEIESV [POTE 553-3F, modified POTE 553 peptide, phenylalanine at position 3]” returned an FI0.5 with HLA-A2 molecule (setting [4]) of 0.3 µM.

The sequence “KILEEIASV [POTE-553-7A, modified POTE 553 peptide, alanine at position 7]” registered an FI0.5 with HLA-A2 molecule (setting [4]) of 0.2 µM.

For the sequence “KILEEIESV [POTE 553-561, unmodified 9-mer peptide, residues 553-561 of human POTE]”, the “binding affinity” value with HLA-A2 molecule was “strongest HLA-A2 binding affinity; also recorded: intermediate binders”. Further, the FI0.5 with HLA-A2 molecule (setting [4]) is 2.6 µM; with HLA-A2 molecule (setting [3]), roughly 5.6 µM. Further, the “IFN-γ response (ELISPOT spots)” value in experiment [1] is reported as “did not induce any significant IFN-γ responses”. In addition, in experiment [2], the “CTL lysis of peptide-pulsed target cells” value is “not any significant detectable target cell lysis”.

Take “KLAAKALLL [POTE 252-3A, modified POTE 252 peptide, alanine at position 3]”: the FI0.5 with HLA-A2 molecule (setting [4]) was 16.9 µM.

With “KLFAKALLL [POTE 252-3F, modified POTE 252 peptide, phenylalanine at position 3]”, the FI0.5 with HLA-A2 molecule (setting [4]) is 1.5 µM.

Consider “KLLEEIESV [POTE 553-2L, modified POTE 553 peptide, leucine at position 2]”, for which, in the experiment with HLA-A2 molecule (setting [4]), the FI0.5 was 0.1 µM. Besides, in experiment [1] (AAD mice immunized s.c. with the enhanced peptide), the “IFN-γ ELISPOT cross-reactive response to the wild type peptide” value is recorded as “no cross-reactive response to wild type peptide was detected”. In addition, the “IFN-γ response (ELISPOT spots)” value in experiment [1] was “induced some extent of IFN-γ responses only after stimulation with the same peptide”. In experiment [2], the “CTL lysis of peptide-pulsed target cells” value is “did not lyse target cells pulsed with POTE 553-2L”.

In turn, “KLMAKAALL [POTE 252-7A, modified POTE 252 peptide, alanine at position 7]” showed an FI0.5 in the experiment with HLA-A2 molecule (setting [4]) of 4 µM.

On to “LLAEQNVDV [POTE 323-3A, modified POTE 323 peptide, alanine at position 3]”, for which the FI0.5 with HLA-A2 molecule (setting [4]) was determined as 0.4 µM.

Take “LLLEQNADV [POTE 323-7A, modified POTE 323 peptide, alanine at position 7]”: the FI0.5 with HLA-A2 molecule (setting [4]) worked out at 2.78 µM.

On to “LLLEQNVDV [POTE 323-331, unmodified 9-mer peptide, residues 323-331 of human POTE]”, for which the “binding affinity” value with HLA-A2 molecule is recorded as “intermediate binders; also recorded: strongest binding affinity”. The figures for the FI0.5 with HLA-A2 molecule (setting [4]) and in the experiment with HLA-A2 molecule (setting [3]) were 0.3 µM and roughly 0.8 µM, respectively. The “IFN-γ response (ELISPOT spots)” value in experiment [1] is given as “induced some IFN-γ responses after stimulation with the identical peptide”. The “IFN-γ response over background level” value in experiment [1] (AAD mice, ELISPOT) is “less than 2 fold”. Moreover, the “CTL lysis of peptide-pulsed target cells” value in experiment [2] is on record as “did not lyse target cells pulsed with POTE 323”.

Consider VLMLLEHGA [POTE 222-230], for which the “binding affinity” value on HLA-A2 molecule is “weak binder”. Further, the FI0.5 result on HLA-A2 molecule (setting [3]) is on record as “approximately 42.4 μM”.

In the experiment with HLA-A2 molecule (setting [4]), “YLLEQNVDV [POTE 323-1Y, modified POTE 323 peptide, tyrosine at position 1]” had an FI0.5 of 0.25 µM.

With “YLMAKALLL [POTE 252-1Y, modified POTE 252 peptide, tyrosine at position 1]”, the FI0.5 in the experiment with HLA-A2 molecule (setting [4]) came to 0.9 µM. Also, the “IFN-γ response (ELISPOT spots)” value in experiment [1] is given as “no significant IFN-γ responses were detected”. In experiment [2], the “CTL lysis of peptide-pulsed target cells” value is “not detectable”.
